Test results published in patent US20250171562A1.
Values belong to the binder of their own block, whether it stands above or below them.

Molecular target: mixture of three Der p 2 specific recombinant human IgE clones H10, H12, P4E (human) (UniProt P01854)
Assay: RBL-SX38 IgE displacement, FACS

mixture of three Der p 2 specific recombinant human IgE clones H10, H12, P4E (human), sequence (P01854 other isoform, or with tags, fused parts or gaps): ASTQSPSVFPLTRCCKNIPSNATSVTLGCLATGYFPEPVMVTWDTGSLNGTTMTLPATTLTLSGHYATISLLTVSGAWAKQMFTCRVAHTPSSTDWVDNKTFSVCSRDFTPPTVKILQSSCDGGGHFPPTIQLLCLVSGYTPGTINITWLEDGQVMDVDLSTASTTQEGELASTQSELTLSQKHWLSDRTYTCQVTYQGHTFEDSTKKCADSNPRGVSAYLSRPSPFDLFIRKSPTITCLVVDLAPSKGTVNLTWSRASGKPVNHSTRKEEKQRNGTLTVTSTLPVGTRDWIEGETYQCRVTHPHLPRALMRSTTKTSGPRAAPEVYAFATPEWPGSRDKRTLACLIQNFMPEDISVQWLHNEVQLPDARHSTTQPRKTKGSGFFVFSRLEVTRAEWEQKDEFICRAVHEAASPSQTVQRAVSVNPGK

EC50: 2 nM
Max effect/effect 1 µM: 93%
B2: NIgG4F3A1(G4S)1 (Fc fusion)
chain 1: DVQLQESGGGLVQAGGSLKLSCAASRGSLSRWDVAWFRQAPGKERSFVTRISWSGTTSYYADAVKGRFAISRDNAKNTVYLQMNSLKPEDTAVYYCAVALYGNRGYYDVNAHSYWGQGTQVTVSGGGGSGPPCPPCPAPEFLGGPSVFLFPPKPKDTLMISRTPEVTCVVVDVSQEDPEVQFNWYVDGVEVHNAKTKPREEQFNSTYRVVSVLTVLHQDWLNGKEYKCKVSNKGLPSSIEKTISKAKGQPREPQVYTLPPCQEEMTKNQVSLWCLVKGFYPSDIAVEWESNGQPENNYKTTPPVLDSDGSFFLYSRLTVDKSRWQEGNVFSCSVMHEALHNHYTQKSLSLSLGK
chain 2: EVQLLESGGGLVQPGGSLRLSCAASGFTFGNYDMAWVRQAPGKRPEWVSSIDTGGDITHYADSVKGRFTISRDNAKNTLYLQMNSLRPEDTAVYWCATDEEYALGPNEFDYYGQGTLVTVSSGGGGSGPPCPPCPAPEFLGGPSVFLFPPKPKDTLMISRTPEVTCVVVDVSQEDPEVQFNWYVDGVEVHNAKTKPREEQFNSTYRVVSVLTVLHQDWLNGKEYKCKVSNKGLPSSIEKTISKAKGQPREPQVCTLPPSQEEMTKNQVSLSCAVKGFYPSDIAVEWESNGQPENNYKTTPPVLDSDGSFFLVSRLTVDKSRWQEGNVFSCSVMHEALHNHYTQKSLSLSLGK

EC50: 2 nM
Max effect/effect 1 µM: 93%
B4: NIgG4F3A1(RS) (Fc fusion)
chain 1: DVQLQESGGGLVQAGGSLKLSCAASRGSLSRWDVAWFRQAPGKERSFVTRISWSGTTSYYADAVKGRFAISRDNAKNTVYLQMNSLKPEDTAVYYCAVALYGNRGYYDVNAHSYWGQGTQVTVSRSGPPCPPCPAPEFLGGPSVFLFPPKPKDTLMISRTPEVTCVVVDVSQEDPEVQFNWYVDGVEVHNAKTKPREEQFNSTYRVVSVLTVLHQDWLNGKEYKCKVSNKGLPSSIEKTISKAKGQPREPQVYTLPPCQEEMTKNQVSLWCLVKGFYPSDIAVEWESNGQPENNYKTTPPVLDSDGSFFLYSRLTVDKSRWQEGNVFSCSVMHEALHNHYTQKSLSLSLGK
chain 2: EVQLLESGGGLVQPGGSLRLSCAASGFTFGNYDMAWVRQAPGKRPEWVSSIDTGGDITHYADSVKGRFTISRDNAKNTLYLQMNSLRPEDTAVYWCATDEEYALGPNEFDYYGQGTLVTVSSRSGPPCPPCPAPEFLGGPSVFLFPPKPKDTLMISRTPEVTCVVVDVSQEDPEVQFNWYVDGVEVHNAKTKPREEQFNSTYRVVSVLTVLHQDWLNGKEYKCKVSNKGLPSSIEKTISKAKGQPREPQVCTLPPSQEEMTKNQVSLSCAVKGFYPSDIAVEWESNGQPENNYKTTPPVLDSDGSFFLVSRLTVDKSRWQEGNVFSCSVMHEALHNHYTQKSLSLSLGK

EC50: 2 nM
Max effect/effect 1 µM: 95%
B5: NIgG4F2A1(G4S)3 (Fc fusion)
chain 1: DVQLQESGGGLVQAGGSLKLSCAASGGSLSRYDMGWFRQAPGKEREFVARISWSGDTKYYADAVEGRFAISRDNAQNTVYLQMNSLKPEDTAVYYCAVALYGNRGYYDVNTYSYWGQGTRVTVSGGGGSGGGGSGGGGSGPPCPPCPAPEFLGGPSVFLFPPKPKDTLMISRTPEVTCVVVDVSQEDPEVQFNWYVDGVEVHNAKTKPREEQFNSTYRVVSVLTVLHQDWLNGKEYKCKVSNKGLPSSIEKTISKAKGQPREPQVYTLPPCQEEMTKNQVSLWCLVKGFYPSDIAVEWESNGQPENNYKTTPPVLDSDGSFFLYSRLTVDKSRWQEGNVFSCSVMHEALHNHYTQKSLSLSLGK
chain 2: EVQLLESGGGLVQPGGSLRLSCAASGFTFGNYDMAWVRQAPGKRPEWVSSIDTGGDITHYADSVKGRFTISRDNAKNTLYLQMNSLRPEDTAVYWCATDEEYALGPNEFDYYGQGTLVTVSSGGGGSGGGGSGGGGSGPPCPPCPAPEFLGGPSVFLFPPKPKDTLMISRTPEVTCVVVDVSQEDPEVQFNWYVDGVEVHNAKTKPREEQFNSTYRVVSVLTVLHQDWLNGKEYKCKVSNKGLPSSIEKTISKAKGQPREPQVCTLPPSQEEMTKNQVSLSCAVKGFYPSDIAVEWESNGQPENNYKTTPPVLDSDGSFFLVSRLTVDKSRWQEGNVFSCSVMHEALHNHYTQKSLSLSLGK

The remaining lines, values behind:

B1: CIgG4F2A1(G4S)1 (Fc fusion)
chain 1: GPPCPPCPAPEFLGGPSVFLFPPKPKDTLMISRTPEVTCVVVDVSQEDPEVQFNWYVDGVEVHNAKTKPREEQFNSTYRVVSVLTVLHQDWLNGKEYKCKVSNKGLPSSIEKTISKAKGQPREPQVYTLPPCQEEMTKNQVSLWCLVKGFYPSDIAVEWESNGQPENNYKTTPPVLDSDGSFFLYSRLTVDKSRWQEGNVFSCSVMHEALHNHYTQKSLSLSLGKGGGGSDVQLQESGGGLVQAGGSLKLSCAASGGSLSRYDMGWFRQAPGKEREFVARISWSGDTKYYADAVEGRFAISRDNAQNTVYLQMNSLKPEDTAVYYCAVALYGNRGYYDVNTYSYWGQGTRVTVS
chain 2: GPPCPPCPAPEFLGGPSVFLFPPKPKDTLMISRTPEVTCVVVDVSQEDPEVQFNWYVDGVEVHNAKTKPREEQFNSTYRVVSVLTVLHQDWLNGKEYKCKVSNKGLPSSIEKTISKAKGQPREPQVCTLPPSQEEMTKNQVSLSCAVKGFYPSDIAVEWESNGQPENNYKTTPPVLDSDGSFFLVSRLTVDKSRWQEGNVFSCSVMHEALHNHYTQKSLSLSLGKGGGGSEVQLLESGGGLVQPGGSLRLSCAASGFTFGNYDMAWVRQAPGKRPEWVSSIDTGGDITHYADSVKGRFTISRDNAKNTLYLQMNSLRPEDTAVYWCATDEEYALGPNEFDYYGQGTLVTVSS
Max effect/effect 1 µM: 11%

B3: NIgG4F2A1(G4S)2 (Fc fusion)
chain 1: DVQLQESGGGLVQAGGSLKLSCAASGGSLSRYDMGWFRQAPGKEREFVARISWSGDTKYYADAVEGRFAISRDNAQNTVYLQMNSLKPEDTAVYYCAVALYGNRGYYDVNTYSYWGQGTRVTVSGGGGSGGGGSGPPCPPCPAPEFLGGPSVFLFPPKPKDTLMISRTPEVTCVVVDVSQEDPEVQFNWYVDGVEVHNAKTKPREEQFNSTYRVVSVLTVLHQDWLNGKEYKCKVSNKGLPSSIEKTISKAKGQPREPQVYTLPPCQEEMTKNQVSLWCLVKGFYPSDIAVEWESNGQPENNYKTTPPVLDSDGSFFLYSRLTVDKSRWQEGNVFSCSVMHEALHNHYTQKSLSLSLGK
chain 2: EVQLLESGGGLVQPGGSLRLSCAASGFTFGNYDMAWVRQAPGKRPEWVSSIDTGGDITHYADSVKGRFTISRDNAKNTLYLQMNSLRPEDTAVYWCATDEEYALGPNEFDYYGQGTLVTVSSGGGGSGGGGSGPPCPPCPAPEFLGGPSVFLFPPKPKDTLMISRTPEVTCVVVDVSQEDPEVQFNWYVDGVEVHNAKTKPREEQFNSTYRVVSVLTVLHQDWLNGKEYKCKVSNKGLPSSIEKTISKAKGQPREPQVCTLPPSQEEMTKNQVSLSCAVKGFYPSDIAVEWESNGQPENNYKTTPPVLDSDGSFFLVSRLTVDKSRWQEGNVFSCSVMHEALHNHYTQKSLSLSLGK
EC50: 2 nM
Max effect/effect 1 µM: 94%

B6: CIgG4F2A1(G4S)3 (Fc fusion)
chain 1: GPPCPPCPAPEFLGGPSVFLFPPKPKDTLMISRTPEVTCVVVDVSQEDPEVQFNWYVDGVEVHNAKTKPREEQFNSTYRVVSVLTVLHQDWLNGKEYKCKVSNKGLPSSIEKTISKAKGQPREPQVYTLPPCQEEMTKNQVSLWCLVKGFYPSDIAVEWESNGQPENNYKTTPPVLDSDGSFFLYSRLTVDKSRWQEGNVFSCSVMHEALHNHYTQKSLSLSLGKGGGGSGGGGSGGGGSDVQLQESGGGLVQAGGSLKLSCAASGGSLSRYDMGWFRQAPGKEREFVARISWSGDTKYYADAVEGRFAISRDNAQNTVYLQMNSLKPEDTAVYYCAVALYGNRGYYDVNTYSYWGQGTRVTVS
chain 2: GPPCPPCPAPEFLGGPSVFLFPPKPKDTLMISRTPEVTCVVVDVSQEDPEVQFNWYVDGVEVHNAKTKPREEQFNSTYRVVSVLTVLHQDWLNGKEYKCKVSNKGLPSSIEKTISKAKGQPREPQVCTLPPSQEEMTKNQVSLSCAVKGFYPSDIAVEWESNGQPENNYKTTPPVLDSDGSFFLVSRLTVDKSRWQEGNVFSCSVMHEALHNHYTQKSLSLSLGKGGGGSGGGGSGGGGSEVQLLESGGGLVQPGGSLRLSCAASGFTFGNYDMAWVRQAPGKRPEWVSSIDTGGDITHYADSVKGRFTISRDNAKNTLYLQMNSLRPEDTAVYWCATDEEYALGPNEFDYYGQGTLVTVSS
Max effect/effect 1 µM: 2%

B7: CIgG4F2A1(G4S)2 (Fc fusion)
chain 1: GPPCPPCPAPEFLGGPSVFLFPPKPKDTLMISRTPEVTCVVVDVSQEDPEVQFNWYVDGVEVHNAKTKPREEQFNSTYRVVSVLTVLHQDWLNGKEYKCKVSNKGLPSSIEKTISKAKGQPREPQVYTLPPCQEEMTKNQVSLWCLVKGFYPSDIAVEWESNGQPENNYKTTPPVLDSDGSFFLYSRLTVDKSRWQEGNVFSCSVMHEALHNHYTQKSLSLSLGKGGGGSGGGGSDVQLQESGGGLVQAGGSLKLSCAASGGSLSRYDMGWFRQAPGKEREFVARISWSGDTKYYADAVEGRFAISRDNAQNTVYLQMNSLKPEDTAVYYCAVALYGNRGYYDVNTYSYWGQGTRVTVS
chain 2: GPPCPPCPAPEFLGGPSVFLFPPKPKDTLMISRTPEVTCVVVDVSQEDPEVQFNWYVDGVEVHNAKTKPREEQFNSTYRVVSVLTVLHQDWLNGKEYKCKVSNKGLPSSIEKTISKAKGQPREPQVCTLPPSQEEMTKNQVSLSCAVKGFYPSDIAVEWESNGQPENNYKTTPPVLDSDGSFFLVSRLTVDKSRWQEGNVFSCSVMHEALHNHYTQKSLSLSLGKGGGGSGGGGSEVQLLESGGGLVQPGGSLRLSCAASGFTFGNYDMAWVRQAPGKRPEWVSSIDTGGDITHYADSVKGRFTISRDNAKNTLYLQMNSLRPEDTAVYWCATDEEYALGPNEFDYYGQGTLVTVSS
Max effect/effect 1 µM: 0%

B8: CIgG4F2A1(RS) (Fc fusion)
chain 1: GPPCPPCPAPEFLGGPSVFLFPPKPKDTLMISRTPEVTCVVVDVSQEDPEVQFNWYVDGVEVHNAKTKPREEQFNSTYRVVSVLTVLHQDWLNGKEYKCKVSNKGLPSSIEKTISKAKGQPREPQVYTLPPCQEEMTKNQVSLWCLVKGFYPSDIAVEWESNGQPENNYKTTPPVLDSDGSFFLYSRLTVDKSRWQEGNVFSCSVMHEALHNHYTQKSLSLSLGKRSDVQLQESGGGLVQAGGSLKLSCAASGGSLSRYDMGWFRQAPGKEREFVARISWSGDTKYYADAVEGRFAISRDNAQNTVYLQMNSLKPEDTAVYYCAVALYGNRGYYDVNTYSYWGQGTRVTVS
chain 2: GPPCPPCPAPEFLGGPSVFLFPPKPKDTLMISRTPEVTCVVVDVSQEDPEVQFNWYVDGVEVHNAKTKPREEQFNSTYRVVSVLTVLHQDWLNGKEYKCKVSNKGLPSSIEKTISKAKGQPREPQVCTLPPSQEEMTKNQVSLSCAVKGFYPSDIAVEWESNGQPENNYKTTPPVLDSDGSFFLVSRLTVDKSRWQEGNVFSCSVMHEALHNHYTQKSLSLSLGKRSEVQLLESGGGLVQPGGSLRLSCAASGFTFGNYDMAWVRQAPGKRPEWVSSIDTGGDITHYADSVKGRFTISRDNAKNTLYLQMNSLRPEDTAVYWCATDEEYALGPNEFDYYGQGTLVTVSS
Max effect/effect 1 µM: 3%
